Test results reported in a protein production outcome set (Wang et al. 2014).

Experiment: label from the status in PepcDB records
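Further: failed if final PepcDB status was selected cloned or expressed and not failed if soluble or beyond.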

| Sequence | protein production |
| --- | --- |
| MLENSITYEKPLYIIKMNQRKKIVQIALPAMAENLLQMLMGVVDNYLVAQIGLVAVSGVSVANNIITIYQAIFIALGAAVSSLVAKSLGEDNQARVRFYQSESVAITLMLSVVLGFISFVFGSNMLHLLGTTDSVTQAGGIYLAIVGGLVVSLGLQTTLGAILRAQGKARLPMYVSFLTNIVNVILATTAIYIGHWGIVGVAAATVLSRFLGTFVLACQLPIKAILRSMRIKIDKAFLAIALPSAGERLMMRAGDVVIIAIIVKFGTAAVAGNAIGETLTQFNYMPGMGVATATVILVAHNLGQGKKKVIKEVVRESYIISTVFMLLVGACIFFGGRQLTYLFTENKAALQASLVVLFYSFIGGPATSGTLVFTAVWQGLGKAKLTFYATTVGMWLIRIVLGYYLGVSLNLGLAGVWLATLADNVFRWLFLYCLYRKYMQGFNNNLSSS | failed |
| MLERLKRIHYMFWISLIFMIFPILSVVTGWLSAWHLLIDILFVVAYLGVLTTKSQRLSWLYWGLMLTYVVGNTAFVAVNYIWFFFFLSNLLSYHFSVRSLKSLHVWTFLLAQVLVVGQLLIFQRIEVEFLFYLLVILTFVDLMTFGLVRIRIVEDLKEAQVKQNAQINLLLAENERSRIGQDLHDSLGHTFAMLSVKTDLALQLFQMEAYPQVEKELKEIHQISKDSMNEVRTIVENLKSRTLTSELETVKKMLEIAGIEVQVENHLDKSSLTQELESTASMILLELVTNIIKHAKASKVYLKLERTEKELILTVRDDGCGFASISGDELHTVRNRVFPFSGEVSVISQKHPTEVQVRLLYKERK | failed |
| MLETAALAAGMSWASGIRLYLAVLTAGVLARLGWLDLPPGLHVLESWWVIGIAGAMAAAEFVADKVPGFDTVWDGIQTFIRIPAGAILAAAAFGQLDPQWMVAAGLIGGTLAGTAHATKAGTRALINVSPEPFSNWVASFTEDITTAGGLLLAFFLPVVFLILLVLFLITAAWLLPKLWRGVRRLHAGLRGNADNQRP | failed |
| MLFEGLPCLAVWCKNRLSAVLPVGGLNVSENLLEIETHPFDPVLPPKAAVMMMGTFPPKEDKRAMQFHYPNFQNDMWRVYGLVFFNDAAHFQRLSEKAFDAEKIKAFLHERGIASCPTVLKAVRQHGNASDKFLKVVETVDLAAVLAKIPECRHICTTGGKATEILLDIQGGGIKMPKTGETVPFPFAGRDLTLTRLPSTSRAYPLSLAKKAAAYRAFFEMAGLCEKQLLEHHHHHH | failed |
| MLFEQIAANKRKTVFIILGFFIFVLMVGAAIGIIVWNNYLNGLILAAAIGAVYILIMVMSSSSVVMAMNHAKEVTSKEQAPVLWDTVESMAMVAGIPMPKVYIVEDPSPNAFATGISPEKGAVAVTRGLLNKLERYELEGVIAHEISHIRNYDIRLSTIAIALVAVIAILSDLAMRLIFWGSLTGGRNSRKSDNNNGGGAQIIIYVVALIFVILAPIIATAIQFALSRNREYLADASAVELTRNPDGLIQALQKISGDTKKMEEVSASSESIYFSSPLKSKKDKPGLFDSHPPISSRIERLENM | failed |
| MLFESINTGCLDGNDTPWMPFAPYSNDVMVKYFKIDPVRGETITLLKAPAGMEMPRHHHTGTVIVYTVQGSWRYKEHDWVAHAGSVVYETASTRHTPQSAYAEGPDIITFNIVAGELLYLDDKDNIIAVENWKTSMDRYLNYCKAHGIRPKDLSTFEG | not failed |
| MLFGGNRNKMLKTIITSAITYSSTAIDLLIILMLFFAKIKDKKGIRDIYIGQFLGSDVLILVSLFFAFILHYVPDKRLLGLLGIIPIFLGLKALIFGDSDGEKMANKELNNNNNKMNLIKTLMFITIVSCGADNIGLFVPYFISLTPLNLVITLIVFLIMIFLLVFVAQKLANVPTIGEVLEKYSRWFIGFVYIFIGGSVLIENGSIQFIINLFK | failed |
| MLFIAFAPFGAFALEANSKNDGYSLDDIKYYKIFENEDIPKIMYALRQGDFEIIAELKNEWEIEEEDVSFEYTTSKNPLGELIRDNLYELGQKYEVFEDESDFVSKMNVWATAFTKSMMKKSSEQKDKLIVQTVNALDNLDETLNLFSERLREWYSLYFPEMDNIVKKHDIYVSLVSEYGDREEYTRTKLKKTMPSNVARTISLAAKESMGADVSEFDLKIMKNLADEIKSMYEYRESLQEYLETSMNEIAPNLTKVAGASLGARLISLAGGIERLLRLPASTIQVIGAEKALFAHLRERALPPKHGVIFQHPLIQGSPWWIHGKIARAISCKISIAIRADAFGNDISDMLIEDMNKKVAEIKEKFPEPTRKRRPRPDTRSFGNKGGQDRDRRSQGDRKPSGNRGDSKKGGKPFGKKPAGKDDRRDNRKGDRKPFGGKPKNSGNQPPKERSGEKRRDSTKKVKAERKVIGKTSSQNLEHHHHHH | not failed |
| MLGAPAHRAASAAPVIRRTKGPDMPTRLTALLSPSRPSRPSRDDAAGPVAGTARPARGAGWATALSLALVCFVTYAALSVRLHQRMLTTGYDLGIFEQAVRSYAHGHLPVAELKGPGFPLLGDHFSPVLALLAPLYRVWPAPVTLLVAQAALFAVAVIPLARWAEEVRGRRAALVVGLGYGASWGVAQAVGFDFHEVCFAVPLLALSLTAVGRGRARAAALWALPLLLVKEDLGLTVAVVGLLIARTGERDDRRRGGALVLAGVLGSFLEMLVVIPAFNPGGTFAYSSSVPGAGSATPGAGELLLHYTVGLVTPDTKAQTVLALLSVTGFLAVRSPLLWAALPTLLWRFASDNQAYWGTGYHYSAVLMPVLFAAFVDALTRPGPVRYALAASAAVTVLLLPQFPLWQLTQPATWHTDSRLASARRLMDRIPDGATVAASNRLVPQLTNRARVSVFGLGGSRPDAEWIIDDSAQPQGWPIAPDDDRRLLSEVRNNGRYRTVADQDGYVLLQRRP | failed |
| MLGEFKHYKTRLAHGGIPQEVQNLLLEYGVEIFAEMLVEGLSRIKRCTDEGRVLMSLDLQVLINGLQHFVPTKVKPKLQIVETFIKAYYLPETEYVHWARAHPEYTKAQVVGLVNLVATMKGWKRKTRLEVIEKIESASM | failed |
| MLGKDYMLAIILVNCDDDLWGDHSLEVEAGLPPGWRKIHDAAGTYYWHVPSGSTQWQRPTWELGDAEDPGTGTEGIWGLRPPKGRSFSSLESSLDRSNSLSWYGGESYIQSMEPGAKCFAVRSLGWVEVPEEDLAPGKSSIAVNNCIQQLAQTRSRSQPPDGAWGEGQNMLMILKKDAMSLVNPLDHSLIHCQPLVHIRVWGVGSSKGRDRDFAFVASDKDSCMLKCHVFCCDVPAKAIASALHGLCAQILSERVEVSGDASCCSPDPISPEDLPRQVELLDAVSQAAQKYEALYMGTLPVTKAMGMDVLNEAIGTLTARGDRNAWVPTMLSVSDSLMTAHPIQAEASTEEEPLWQCPVRLVTFIGVGRDPHTFGLIADLGRQSFQCAAFWCQPHAGGLSEAVQAACMVQYQKCLVASAARGKAWGAQARARLRLKRTSSMDSPGGPLPLPLLKGGVGGAGATPRKRGVFSFLDAFRLKPSLLHMP | not failed |
| MLHDTPLITTIVAGLCLAFLLGMIASRLRISPLVGYLLAGVIVGPNTGGFRIDSGIINQLAEIGVILLMFGVGLHFSLKDLLSVKAIAIPAAIAQMAFSTFLGSCLGLIMGWGLSSSVVFGLALSTASTVILLRALQERHLIETEKGRIAVGWLIIEDLAMVLILVLIPSLANILGNTKKEAIDPLIQWLDLSIWGIFGLTILKVILFIILMLVIGRRVIPWLLKVSAHSGSRELFRLSVFATALGVAFGAAHLFGVSLSLGAFFAGMVMSESELSHRAAEESLPLRDAFSVLFFVSVGMLFDPGKILSHFFPLLATLFIIIIGKSAGAFFILKAFRYSNATACTISASLAQIGEFSFILAGLSLSLGLLNNDAHDFILGGAILSILVNPLIFIAFDKIKKHLENLPKNSQDTQKIIDIDPKDPDQEFLPMTSKTNHIVIIGYSRIGKCVALSLINRGDPVVIVEESKRLTDKAIADGFEVICGNIIKQDVMNAANMSNAYKVVITMCNTIEVGECIVNIRDMNKDIQIITHTLSDVDTAYLIDLGADIVVTDEEEIANGVIEHITGQRFIKNIAQS | failed |
| MLHLQTFGDLRLIETNGDAIRYPIKGLLMMAHLYAGASHELSRYELAQFLWNDVESELARLNLRKLLSRIRETDGGRAEIPFDFTATTVRLNTQAVSSDLDIFRAGGSPLERLNAIAELTQRGFIGNIKPATKLIEAWIRAQRDAQALQLRQALLDALPDAQKPGAARSISGAALQILERDPNDEQVRALLHQLSGGSSLSERLPNGDGHARVQVKRSEAGGETTADIERVSQAPLILPRLVLLPPTSKHADAGLALANALIEDVTIELCALRNISIVAPHTAGQIRRDSEKAAVVARHSIAYLLDTRLSEEGLFAQLVYFPTDEIIWANRFTMTPDILPRQRRLIAQQLTMSVARELAENEEERLRFEANPEAYHAYLVGSSLMSKLTLPHIRRARKAFKQSLSHKADFSPSFTGLARTFTSEWLVTAQGNNELLHLAEQNALRAIERDPASAAGHRELGVTKLYLGDVDASVAALDLAEQLSPHFADVIYSHADTLVHASRPGDALAKIRRAISLNPIAPDAYLWCAAGASFFLEQYEEAIAYVEAMKDKAPAHRIAAASCAMIGDRKRALFHRQRAESINPVFDVEKWLAIVPFKEDWQKELYREGLLKAGF | failed |
| MLIDKKTQAGVKSIIGWQHCAHFYRQNKLLGLFTKIKRPTKGQRMEEELKQQFDEMGVEPADAVLGRCAELAITYNIHDATEFVEQWMAFSLSHLQGEDPAIENLGDFERKVLQLRKDKAGYKATGQKAKSYGSPSVQDTSSLATYGVMEDDPMLDDYVSESAVDSSALHTPKAKKQSDRTANLKGAALFSPASYTPQSAKRKAGLETPSNSVAGKPGDIVDTFGHPKLLAGSSWQSQMEHTVPVTQKLLHNDAPLTIANLGYMNDLLTDRCHNLRVRFNQTGPALVDKKLGQAGAAECIWYPQDRQVLQSAGGLHAVGMIHSEDDGPLDAHSAFMAVLDDDVEDEMDPTLTLNFSRVKSASIFPGQVVLAKGFIPRGKTFMVEEIHTERKLTPATPLQIDRELQFVVASGPFTDSTDLFYEPLHDLLKYLKDHRPDVLVLTGPFLDADHKMVGELAETFDTFFEKMIGGIMESIGSHTAVLVVTSQKDAMALSVYPTPPPALRRTYPNLYMLPDPSLVDLDGFTLGVTSTDVVDHLLSHEFAVNAGERMHRAINHLFHQGSFYPLYPPADEDMAYDSQLALKYAQLKQLPNVLILPSDQRHFIRLVNDCLVINPGRVADKKGGTFARFLVAPSVPGKAANMFNSVACQVQRI | failed |
| MLIDPIELYRYPEKWIKDRDAEKKVRSGLYILTEDGYLRRGITTGTTASAAAVAAIASLKEKVEKVKVSTPAGVDVEVEVEAEKGFARVRKFSGDHEFDVTNGIIFEAEVCETSGIFFGRGVGVKAGEKAVSRSAKLQILENFIKASREFNFSGGVRISVPDGEEVAKKTGNEKVGIKGGISILGTTGFVEPWCKKLVETKLKIAMQYHRIAITTGRKAWLYARKKFPEYQPFVFGVHIDEALKHPGEKIIVGFPGLLKIWAGSRDRIEERAREEGVRVVVIEDDMDSWVWDVQGTDH | not failed |
| MLIFKIFRRSEWDDFRRAGATAGAPVDLADGYIHFSTAAQVAETAAKHFTAESDLVLVAIDPDRAGPDLKWEPSRGEQLFPHLYRRLTLDDVVWDKSLPLGATGHIFPEGLWLEHHHHHH | not failed |
| MLIKRLAFAIMTLVIMTSAGCGFKLQRSYQIPEQLNQLSLSSSDEYSELTRLVRERLRLNNVKIVDAANDVPVLRLITDSLERSTLSLYPTGNVAEYELIYFVEFAVALPGKEAQPFKIEIRRDYLDDPRTALAKSREMELLVKEMRIQAADRILQSMASTEVNLEHHHHHH | not failed |
| MLILSTEKEPNFEYEEITRSFLSNMLAFTRGHFTGDISHFSPIVLAEMEKDPNWLEEAAGGMQGVIVQSLLEDENFSSVEQLKGELARLIRLYFALAKDNLTENQESLYVDLFDKFTFLLLCSDEFIMYLDSQPKF | not failed |
| MLIRAIPFVFVILWASGFVGARFGLQYAEPATLLSIRMAFNVLLFLVLVAVLRRRLPTGTDFWHSCVVGALIHGFYLGGTYFAIALGMPAGLSSLLVGIQPILTAALLVAFVREEFKPSQWLGLALGFVGIAMVLMGKMEWQSEQHKVLAIGLCLLALVGITLGTLYQKKHCQQVDMVGGATVQYLAALIMFLPVAMQFETMQVQWELEFILTVLWLVVVLSCVAILLLLYMVRNGASSSVASVFYLVPPTTAIQAWLAFGESFDWMGISGFVLAATAVYLVVKKPDLTIKKAIKTEYT | failed |
